Experimental data from patent US20240352438A1, “MEANS AND METHODS FOR DETOXIFYING OCHRATOXIN A” (DSM Austria GmbH, priority 2021, published 2024).

B1: 312 (protein)
chain: MTTRTRILTAFLSLLAANACAADAAPAAPHTVVLRAARMFDGASGKLVDHPQLTIVGNKIVRIAQGDKAEVPAGAEVVDLGDATLLPGFIDAHVHLSGQSSDNWYGDFFDNMMRFPAEQALYGAYYARITLEAGFTSVRDVGSTDWVALGLRNAIDAGKVPGPRMLVSNYAVGSTGGHADQDPIPPHKLPLAGPLQGVCNGPEECRAAVRYQIKYGANVIKFMPSGGVLSLSDPVDAPELSQDEMNAVIGESHAWGRKVAAHAHGDKAAKMAVAAGVDSIEHGSFIEDDTLRAMKAKNVYLVPTISAVAHVEEKIGTFPPVIAEKGRAAMAHLRQTFRHAVQIGVPIALGTDAGVGAHGSNAREFRYMVENGLTPAQALLAGTANAARLLGTFDRVGTLEAGKLADVVAVPGNPIADITVTERPLFVMKDGVVVRRDAVR
modifications: exemplary polypeptide
B2: 83 (protein)
chain: MTTRTRILTAFLSLLAANACAADAAPAAPHTVVLRAARMFDGASGKLVDHPQLTIVGNKIVRIAQGDKAEVPAGAEVVDLGDATLLPGFIDAHVHLSGQSSDNWYGDFFDNMMRFPAEQALYGAYYARITLEAGFTSVRDVGSTDWVALGLRNAIDAGKVPGPRMLVSNYAVGSTGGHADQDPIPPHKLPLAGPLQGVCNGPEECRAAVRYQIKYGANVIKFMPSGGVISLSDPVDAPELSQDEMNAVIGESHAWGRKVAAHAHGDKAAKMAVAAGVDSIEHGSFIEDDTLRAMKAKNVYLVPTISAIAHVEEKIGTFPPVIAEKGRAAAAHLRQTFRHAVQIGVPIALGTDAGVGAHGSNAREFRYMVENGLTPAQALLAGTANAARLLGTFDRVGTLEAGKLADVVAVPGNPIADITVTERPLFVMKDGVVVRRDAVR
modifications: exemplary polypeptide
B3: 88 (protein)
chain: MTTRTRILTAFLSLLAANACAADAAPAAPHTVVLRAARMFDGASGKLVDHPQLTIVGNKIVRIAQGDKAEVPAGAEVVDLGDATLLPGFIDAHVHLSGQSSDNWYGDFFDNMMRFPAEQALYGAYYARITLEAGFTSVRDVGSTDWVALGLRNAIDAGKVPGPRMLVSNYAVGSTGGHADQDPIPPHKLPLAGPLQGVCNGPEECRAAVRYQIKYGANVIKFMPSGGVLSLSDPVDAPELSQDEMNAVIGESHAWGRKVAAHAHGDKAAKMAVAAGVDSIEHGSFIEDDTLRAMKAKNVYLVPTISAIAHLEEKIGTFPPVIAEKGRAAAAHLRQTFRHAVQIGVPIALGTDAGVGAHGSNAREFRYMVENGLTPAQALLAGTANAARLLGTFDRVGTLEAGKLADVVAVPGNPIADITVTERPLFVMKDGVVVRRDAVR
modifications: exemplary polypeptide
B4: 85 (protein)
chain: MTTRTRILTAFLSLLAANACAADAAPAAPHTVVLRAARMFDGASGKLVDHPQLTIVGNKIVRIAQGDKAEVPAGAEVVDLGDATLLPGFIDAHVHLSGQSSDNWYGDFFDNMMRFPAEQALYGAYYARITLEAGFTSVRDVGSTDWVALGLRNAIDAGKVPGPRMLVSNYAVGSTGGHADQDPIPPHKLPLAGPLQGVCNGPEECRAAVRYQIKYGANVIKFMPSGGVLSLSDPVDAPELSQDEMNAVIGESHAWGRKVAAHALGDKAAKMAVAAGVDSIEHGSFIEDDTLRAMKAKNVYLVPTISAIAHVEEKIGTFPPVIAEKGRAAAAHLRQTFRHAVQIGVPIALGTDAGVGAHGSNAREFRYMVENGLTPAQALLAGTANAARLLGTFDRVGTLEAGKLADVVAVPGNPIADITVTERPLFVMKDGVVVRRDAVR
modifications: exemplary polypeptide
B5: 87 (protein)
chain: MTTRTRILTAFLSLLAANACAADAAPAAPHTVVLRAARMFDGASGKLVDHPQLTIVGNKIVRIAQGDKAEVPAGAEVVDLGDATLLPGFIDAHVHLSGQSSDNWYGDFFDNMMRFPAEQALYGAYYARITLEAGFTSVRDVGSTDWVALGLRNAIDAGKVPGPRMLVSNYAVGSTGGHADQDPIPPHKLPLAGPLQGVCNGPEECRAAVRYQIKYGANVIKFMPSGGVLSLSDPVDAPELSQDEMNAVIGESHAWGRKVAAHAHGDKAAKMAVAAGVDSIEHGSFIEDDTLRAMKAKNVYLVPTISAAAHVEEKIGTFPPVIAEKGRAAAAHLRQTFRHAVQIGVPIALGTDAGVGAHGSNAREFRYMVENGLTPAQALLAGTANAARLLGTFDRVGTLEAGKLADVVAVPGNPIADITVTERPLFVMKDGVVVRRDAVR
modifications: exemplary polypeptide
B6: 315 (protein)
chain: MTTRTRILTAFLSLLAANACAADAAPAAPHTVVLRAARMFDGASGKLVDHPQLTIVGNKIVRIAQGDKAEVPAGAEVVDLGDATLLPGFIDAHVHLSGQSSDNWYGDFFDNMMRFPAEQALYGAYYARITLEAGFTSVRDVGSTDWVALGLRNAIDAGKVPGPRMLVSNYAVGSTGGHADQDPIPPHKLPLAGPLQGVCNGPEECRAAVRYQIKYGANVIKFMPSGGVLSLSDPVDAPELSQDEMNAVIGESHAWGRKVAAHAHGDKAAKMAVAAGVDSIEHGSFIEDDTLRAMKAKNVYLVPTISAVAHVEEKIGTFPPVIAEKGRAAAAHMRQTFRHAVQIGVPIALGTDAGVGAHGSNAREFRYMVENGLTPAQALLAGTANAARLLGTFDRVGTLEAGKLADVVAVPGNPIADITVTERPLFVMKDGVVVRRDAVR
modifications: exemplary polypeptide
B7: 84 (protein)
chain: MTTRTRILTAFLSLLAANACAADAAPAAPHTVVLRAARMFDGASGKLVDHPQLTIVGNKIVRIAQGDKAEVPAGAEVVDLGDATLLPGFIDAHVHLSGQSSDNWYGDFFDNMMRFPAEQALYGAYYARITLEAGFTSVRDVGSTDWVALGLRNAIDAGKVPGPRMLVSNYAVGSTGGHADQDPIPPHKLPLAGPLQGVCNGPEECRAAVRYQIKYGANVIKFMPSGGVLSLSDPVDAPELSQDEMNAVIGESHAWGRKVAAHANGDKAAKMAVAAGVDSIEHGSFIEDDTLRAMKAKNVYLVPTISAIAHVEEKIGTFPPVIAEKGRAAAAHLRQTFRHAVQIGVPIALGTDAGVGAHGSNAREFRYMVENGLTPAQALLAGTANAARLLGTFDRVGTLEAGKLADVVAVPGNPIADITVTERPLFVMKDGVVVRRDAVR
modifications: exemplary polypeptide
B8: 313 (protein)
chain: MTTRTRILTAFLSLLAANACAADAAPAAPHTVVLRAARMFDGASGKLVDHPQLTIVGNKIVRIAQGDKAEVPAGAEVVDLGDATLLPGFIDAHVHLSGQSSDNWYGDFFDNMMRFPAEQALYGAYYARITLEAGFTSVRDVGSTDWVALGLRNAIDAGKVPGPRMLVSNYAVGSTGGHADQDPIPPHKLPLAGPLQGVCNGPEECRAAVRYQIKYGANVIKFMPSGGVLSLSDPVDAPELSQDEMNAVIGESHAWGRKVAAHAHGDKAAKMAVAAGVDSIEHGSFIEDDTLRAMKAKNVYLVPTISAVAHVEEKIGTFPPVIAEKGRAAVAHLRQTFRHAVQIGVPIALGTDAGVGAHGSNAREFRYMVENGLTPAQALLAGTANAARLLGTFDRVGTLEAGKLADVVAVPGNPIADITVTERPLFVMKDGVVVRRDAVR
modifications: exemplary polypeptide
B9: 316 (protein)
chain: MTTRTRILTAFLSLLAANACAADAAPAAPETVVLRCARMFDGASGKLVDNPQLTIVGNKIVRIAQGDKAEVPAGAEVVDLGDATCLPGFIDAHVHLVVQDSDQYRPRAYKDWQRFPAEHALRGAYWARIELEAGFTSVRDVAERDWVALGLRNAIDAGKVPGPRMLVSNFPVGSTSGHCDMDSVPPNRLPLVGPLQGTCNGPEECRAAVRYQIKYGANVIKFCPSSGAITFSNPADAPQLSPDEMNAVIGESEAWGRYVAAHAQGDKAAKMAVAAGVRSIEHGTFIQDDTLRAMKAKNVCLVPTISGVCEAEAQIGCYPPVMAEKGRAGMASMRQTFREAVQIGVPIALGTDSALPANGSQAREFRYMVENGLTPAQALLAGTANAARCLGTFDRVGTLEAGKLADVVAVPGNPIADITVTERPLFVMKDGVVVRRDAVR
modifications: exemplary polypeptide

Assays:
[1] = Enzymatic activity comparison: activity remaining after 65° C. for 10 min at pH 6.0, relative to SEQ ID NO: 1; format: physicochemical
Experimental: To compare the temperature behavior and thermostability of selected enzymes to one another, enzyme was incubated at 65° C. for 10 min at pH 6.0. The enzymatic activity remaining after incubation was compared to the remaining activity of the enzyme of SEQ ID NO: 1 after incubation, the latter being set to 100%, see Table 16.

[2] = OTA detoxification activity assay (specific activity, fluorescence reduction ex/em 390/450 nm); format: biochemical; conditions: SEQ ID NO: 1 = 100%
Method in brief: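 Recombinant enzyme preparation with 200 ng/mL OTA in 100 mM sodium phosphate, at pH 6.0 and pH 7.5, 37° C. Degradation followed as the fall in fluorescence at ex/em 390/450 nm. Specific activity taken from the initial linear slope; one unit degrades 1 μmol OTA per min at a starting OTA of […].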

Molecule	Enzymatic activity remaining after incubation, compared to SEQ ID NO: 1 (set to 100%) [1]	Specific OTA detoxification activities in % compared to the enzyme of SEQ ID NO: 1, pH 6.0 [2]	Specific OTA detoxification activities in % compared to the enzyme of SEQ ID NO: 1, pH 7.5 [2]
B1	17%	81%	64%
B2	19%	63%	90%
B3	33%	66%	91%
B4	95%	5%	3%
B5	53%	65%	166%
B6	29%	38%	56%
B7	58%	3%	5%
B8	20%	84%	54%
B9	25%	62%	61%
